{"source": "paper PMC6833485", "biological_target": "thrombin (Homo sapiens, UniProt P00734;P00734 328-363;364-622)", "assay": "reflectometric interference spectroscopy (RIfS), immobilized aptamer; PBS + MgCl2; sigmoidal fit of dEOT; Binding buffer PBS + MgCl2 (concentration, pH not given); TBA preheated 95 °C 5 min, cooled to room temperature; flow cell, assay temperature not stated", "data": [{"binder": "GGTTGGTGTGGTTGG (structured_DNA, 5'-biotin)", "note": "[TBA 15-mer (5'-biotin)]", "values": [{"measurement": "Kd", "result": 900, "unit": "nM"}]}]}
